Source: US20230272390A1, “COMPOSITIONS AND METHODS FOR HEMOGLOBIN PRODUCTION” (THE CHILDREN'S HOSPITAL OF PHILADELPHIA, priority 2020, published 2023)

Experiments:
[1] = molecular target: oligo containing the consensus motif; test: Fluorescence polarization DNA binding assay, consensus oligo; design: species or system human; details: purified GST fusion protein, 17-bp oligo containing the consensus motif, read-out: dissociation constant (KD)
Experimental: The fragment of Human ZNF410 (NP_001229855.1) comprising of five zinc finger domains ZF1-5 (residues 217-366) was cloned into pGEX-6P-1 vector with a GST fusion tag (pXC2180). The plasmid was transformed into Escherichia coli strain BL21-Codon-plus(DE3)-RIL (Stratagene). Bacteria was grown in LB broth in a shaker at 37° C. until reaching the log phase (A600 nm between 0.4 and 0.5), the shaker temperature was then set to 16° C. and 25 μM ZnCl2 was added to the cell culture. When the shaker temperature reached 16° C. and A600 nm reached ˜0.8, the protein expression was induced by the addition of 0.2 mM isopropyl-3-D-thiogalactopyranoside with subsequent growth for 20 hours at 16° C. […]
Fluorescence polarization (FP) method was used to measure the binding affinity using a Synergy™ 4 Microplate Reader (BioTek). […]
To further gain insight into the molecular basis of how the ZNF410 tandem ZF domain recognizes its targeting DNA sequence, crystallization of the ZNF410-DNA complex was performed. The binding affinity of the ZNF410 ZF domain (ZF1-5) with the consensus motif was quantified by fluorescence polarization using purified GST fusion protein (Patel, et al. (2016) Methods Enzymol., 573:387-401). […]

[2] = system: motifs from the CHD4 promoter and enhancer sites; test: EMSA with COS-7 nuclear extracts and radiolabeled probes; assay type: binding, human; details: COS nuclear extracts, FLAG-tagged constructs, radiolabeled CHD4 motif probes
Experimental: Nuclear extracts were prepared from COS-7 cells transiently transfected with ZNF410 full-length and ZNF410 ZF1-5 plasmids. FuGENE® 6 (Promega) was used to transfect 5 μg of vector into 100 mm plates of COS-7 cells. A pcDNA3 empty vector was used as control. Cells were harvested 48 hours after transfection and nuclear extracts prepared (Andrews, et al. (1991) Nucleic Acids Res., 19:2499).
EMSAs were performed (Crossley, et al. (1996) Mol. Cell Biol., 16:1695-1705). The sense oligonucleotide was labelled with [γ-^32P]-adenosine triphosphate (Perkin Elmer) and boiled at 100° C. for 1 minute before addition of the antisense oligonucleotide and annealing of probe via slow cooling from 100° C. to room temperature. Probes were purified using Quick Spin Columns for radio-labelled DNA Purification (Roche). Nuclear extracts were harvested from COS-7 cells and samples and loaded on a 6% native polyacrylamide gel in TBE buffer (45 mM Tris, 45 mM boric acid, 1 mM EDTA). A ‘COS empty’ control lane was included to show binding of any background endogenous protein to the probe. […] Gels were run at 250 V for 1 hour, 45 minutes at 4° C. then dried under vacuum. […]
ZNF410 contains five tandem C2H2-type zinc fingers (ZFs) potentially involved in DNA binding (FIG. 5A). […] Direct DNA binding by full length (FL) ZNF410 to sequences found at the CHD4 gene was assessed by electrophoretic mobility shift assays (EMSAs). […]

B1: ZF1-5: fragment of human ZNF410 comprising five zinc finger domains ZF1-5 (residues 217-366); dominant-negative when overexpressed (protein)
chain: KKLKCTVEGCDRTFVWPAHFKYHLKTHRNDRSFICPAEGCGKSFYVLQRLKVHMRTHNGEKPFMCHESGCGKQFTTAGNLKNHRRIHTGEKPFLCEAQGCGRSFAEYSSLRKHLVVHSGEKPHQCQVCGKTFSQSGSRNVHMRKHHLQLG
modifications: left off: small tags and cut ends
notes: fragment of human ZNF410 comprising five zinc finger domains ZF1-5 (residues 217-366); dominant-negative when overexpressed
Kd [1]: 22 nM | DNA binding in EMSA [2]: strong DNA binding
